First the molecules themselves.
T1: human CTGF protein (R&D, Cat No. 9190-CC) (human, UniProt P29279 27-349)
T1 construct: Bought protein; also called CTGF recombinant protein; CTGF (R&D)
T1 sequence: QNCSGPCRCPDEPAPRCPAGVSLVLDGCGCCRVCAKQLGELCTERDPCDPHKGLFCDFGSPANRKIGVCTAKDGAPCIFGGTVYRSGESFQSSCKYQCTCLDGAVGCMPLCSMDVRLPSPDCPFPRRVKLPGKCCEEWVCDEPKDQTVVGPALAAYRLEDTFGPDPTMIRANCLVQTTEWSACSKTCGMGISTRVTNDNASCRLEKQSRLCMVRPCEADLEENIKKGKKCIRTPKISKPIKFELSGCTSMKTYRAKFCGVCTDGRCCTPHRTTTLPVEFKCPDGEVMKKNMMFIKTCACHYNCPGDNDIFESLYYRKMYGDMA

T2: human CTGF (antigen of the Biacore assays) (human, UniProt P29279 27-349)
T2 construct: also called antigen human CTGF; human CTGF protein
T2 sequence (looked up): T1 sequence with D57H

B1: Hu147-22wk (antibody, human IgG1, kappa, V domains shown)
VH: EVQLVESGGGLVQPGGSLRLSCAASGFTFNTYAMNWVRQAPGKGLEWVARIRTKSNNYATYYADSVKDRFTISRDDSKNSLYLQMNSLKTEDTAVYYCVETGFAYWDQGTLVTVSS
VL: EIVLTQSPATLSLSPGERATLSCSASSSVSYMHWFQQKPGQSPKLLIYSTSNLASGIPARFSGSGSGTDYTLTISSLEPEDFAVYYCQQRSSYPLTFGQGTKLEIKR
B2: Hu147-13wk (antibody, human IgG1, kappa, V domains shown)
VH: B1 VH with N30S, A49G
VL: B1 VL with L46W, I57V
B3: Hu147-23wk (antibody, human IgG1, kappa, V domains shown)
VH: B1 VH
VL: B1 VL with L46W, I57V
B4: Hu147-15wk (antibody, human IgG1, kappa, V domains shown)
VH: B1 VH with N30S, A49G
VL: DIQLTQSPSSLSASVGDRVTITCSASSSVSYMHWFQQKPGKSPKLWIYSTSNLASGVPSRFSGSGSGTDYTLTISSLQPEDFATYYCQQRSSYPLTFGQGTKLEIKR
B5: Hu147-11wk (antibody, human IgG1, kappa, V domains shown)
VH: B1 VH with N30S, A49G
VL: B1 VL with K44R
B6: Hu147-32wk (antibody, human IgG1, kappa, V domains shown)
VH: B1 VH with T28S, K78E, N79S
VL: B1 VL
B7: Hu147-31wk (antibody, human IgG1, kappa, V domains shown)
VH: B1 VH with T28S, K78E, N79S
VL: B1 VL with K44R
B8: Hu147-21wk (antibody, human IgG1, kappa, V domains shown)
VH: B1 VH
VL: B1 VL with K44R
B9: Hu147-24wk (antibody, human IgG1, kappa, V domains shown)
VH: B1 VH
VL: B4 VL with L4M, W46L
B10: positive control CTGF antibody mAb1 (antibody, V domains shown)
VH: EGQLVQSGGGLVHPGGSLRLSCAGSGFTFSSYGMHWVRQAPGKGLEWVSGIGTGGGTYSTDSVKGRFTISRDNAKNSLYLQMNSLRAEDMAVYYCARGDYYGSGSFFDCWGQGTLVTVSS
VL: DIQMTQSPSSLSASVGDRVTITCRASQGISSWLAWYQQKPEKAPKSLIYAASSLQSGVPSRFSGSGSGTDFTLTISSLQPEDFATYYCQQYNSYPPTFGQGTKLEIKR
notes: Positive control, from CN1829740B; also called pamrevlumab; FG-3019
B11: Hu164-68wl (antibody, human IgG1, lambda, V domains shown)
VH: EVTLKESGPVLVKPTETLTLTCTVSGFSLSTFGVHWIRQPPGKGLEWLGVIWRRGGTDYNAAFMSRLTISKDTSKSQVVFTMTNMDPVDTATYYCARDGGFDYWGQGTTVTVSS
VL: ETVVTQEPSFSVSPGGTVTLTCRSSIGAVTTSNYANWVQQTPGQAFRGLIGGTSNRAPGVPDRFSGSILGNKAALTITGAQADDESDYYCALWYSTHYVFGGGTKLTVLG
B12: Hu164-69wl (antibody, human IgG1, lambda, V domains shown)
VH: B11 VH
VL: ESVVTQPPSVSGAPGQRVTISCRSSIGAVTTSNYANWVQQLPGTAFKGLIGGTSNRAPGVPDRFSGSKSGTSASLAITGLQAEDEADYYCALWYSTHYVFGGGTKLTVLG
B13: Hu164-77wl (antibody, human IgG1, lambda, V domains shown)
VH: EVQLQESGPGLVKPSQTLSLTCTVSGFSISTFGVHWIRQHPGKGLEWIGVIWRRGGTDYNAAFMSRVTISKDTSKNQVSLKLSSVTAADTAVYYCARDGGFDYWGQGTTVTVSS
VL: ETVVTQEPSLTVSPGGTVTLTCRSSIGAVTTSNYANWVQQKPGQAFRGLIGGTSNRAPWTPARFSGSLLGGKAALTLSGVQPEDEAEYYCALWYSTHYVFGGGTKLTVLG
B14: Hu164-57wl (antibody, human IgG1, lambda, V domains shown)
VH: B11 VH with G44A, G49A, F80L
VL: B13 VL
B15: Hu164-87wl (antibody, human IgG1, lambda, V domains shown)
VH: B13 VH with I48L, V67L, L80F
VL: B13 VL

Numbering of substitutions follows the chain as printed.

The first assay concerns the target T1, human CTGF protein (R&D, Cat No. …). As to the kind of experiment: ELISA, plate coated with CTGF (R&D 9190-CC). Here is the method: The binding activity of anti-human CTGF antibody to human CTGF protein was tested by ELISA assay and Biacore. A 96-well microtiter plate was directly coated with the CTGF recombinant protein. The signal strength upon the addition of the antibody was used to determine the binding activity of the antibody to CTGF. The specific experimental procedures were as follows:
The CTGF protein (R&D, Cat No. 9190-CC) was diluted with PBS, pH 7.4 (Shanghai Yuanpei, Cat No. B320) buffer to a concentration of 0.2 μg/ml, 50 μl/well of which was added into the 96-well microtiter plate (Corning, Cat No. CLS3590-100EA), and incubated in an incubator at 37° C. for 2 hours or at 4° C. overnight (16-18 hours). The liquid was removed, 250 μl/ well blocking solution (5% skim milk (BD skim milk, Cat No.232100) diluted in PBS) was added, and incubated in an incubator at 37° C. for 3 hours or at 4° C. overnight (16-18 hours) for blocking. After the blocking was finished, the blocking solution was removed, the plate was washed for 5 times with PBST buffer (PBS containing 0.1% Tween-20, pH 7.4), 50 μl/well of various concentrations of each of the test antibodies (antibodies purified from hybridoma or humanized antibodies) diluted with sample dilution solution were added, and incubated in an incubator at 37° C. for 1 hours. After the incubation was finished, the plate was washed for 3 times with PBST, 50 μl/well of HRP-labeled goat anti-mouse secondary antibody (Jackson Immuno Research, Cat No. 115-035-003) or goat anti-human secondary antibody (Jackson Immuno Research, Cat No. 109-035-003) diluted with sample dilution solution was added, and incubated at 37° C. for 1 hour. The plate was washed for 3 times with PBST, 50 μl/well of TMB chromogenic substrate (KPL, Cat No. 52-00-03) was added, incubated at room temperature for 5-10min, and 50 μl/well of 1 M H₂SO₄ was added to stop the reaction. The absorbance value was read by a microplate reader (Molecular Devices, VERSA max) at a wavelength of 450 nm, and the data was analyzed with GraphPad Prism 5. The binding of CTGF antibody to human CTGF protein was calculated as EC50 value.
Background: An ELISA detects its analyte on a solid surface through an enzyme-linked reagent.
As for B1, it took 56 pM to reach a half-maximal effect (EC50).

Regarding B2, the EC50 (usually the concentration needed to bring the measured effect to its halfway point) was determined as 43 pM.

Consider B3, for which the EC50 worked out at 58 pM.

Molecule B4 yielded a concentration for a half-maximal effect (EC50) of 34 pM. Compared with the last molecule, the EC50 is about 1.7-fold lower.

For the molecule B5, the EC50 is 45 pM.

The molecule B6 gave an EC50 of 63 pM.

The molecule B7 gave an EC50 of 56 pM.

B8: a half-maximal effect (EC50) was put at 67 pM.

Turning to B9, the midpoint of the response, the EC50, lay at 48 pM. This EC50 and that of the molecule before are within 1.5-fold of each other.

In the case of B10, the EC50 came out at 67 pM.

The molecule B11 had an EC50 of 69 pM. This EC50 and that of the molecule before are within 1.5-fold of each other.

As for B12, the EC50 was determined as 63 pM.

With B13, the midpoint of the response, the EC50, lay at 55 pM.

In turn, B14 registered an EC50 of 44 pM. This EC50 and that of the molecule before are within 1.5-fold of each other.

The molecule B15 showed an EC50 of 55 pM.

The target of another assay is T2, human CTGF (antigen of the Biacore …). Briefly: Biacore, antibody captured on Protein A, CTGF in flow, 1:1 fit. The source says:
A certain amount of each of the test antibodies was affinity-captured with Protein A biosensor chip (Cat. # 29127556, GE), and then a certain concentration of human or mouse CTGF was allowed to flow through the surface of the chip. The reaction signals were detected in real time with Biacore instrument to generate a binding and dissociation curve. After the dissociation was completed in each cycle, the biosensor chip was washed and regenerated with Glycine-HCl regeneration solution pH 1.5 (Cat. # BR-1003-54, GE). The running buffer for the assay was 1×HBS-EP buffer solution (Cat. # BR-1001-88, GE).
On the technique in general: Surface plasmon resonance follows binding to a sensor surface in real time, without labels.
As to B1, the equilibrium dissociation constant (Kd) (commonly the equilibrium constant for the complex coming apart) was 1010 pM, the koff (usually the rate constant with which the complex falls apart) is 0.0142 s⁻¹ and the on-rate constant (kon) (usually the rate constant with which the complex forms) stood at 1.4e+07 M⁻¹ s⁻¹.

On to B2, for which binding was put at a Kd of 808 pM, the koff was determined as 0.024 s⁻¹ and the kon came out at 2.97e+07 M⁻¹ s⁻¹.

Consider B3, for which the dissociation constant (Kd) is 818 pM, the koff turned out to be 0.0112 s⁻¹ and the on-rate constant (kon) stood at 1.37e+07 M⁻¹ s⁻¹.

B5: the Kd worked out at 1130 pM, the koff came out at 0.0336 s⁻¹ and the kon came to 2.98e+07 M⁻¹ s⁻¹.

Consider B6, for which the Kd is 910 pM, the koff stood at 0.0133 s⁻¹ and the on-rate (kon) was 1.46e+07 M⁻¹ s⁻¹.

As for B7, the Kd was 894 pM, the off-rate constant (koff) worked out at 0.0159 s⁻¹ and the on-rate (kon) worked out at 1.78e+07 M⁻¹ s⁻¹.

Molecule B8 displayed a dissociation constant (Kd) of 974 pM, a koff of 0.0162 s⁻¹ and a kon of 1.66e+07 M⁻¹ s⁻¹.

For B11, the dissociation constant Kd worked out at 302 pM, the off-rate constant (koff) is 0.0116 s⁻¹ and the kon turned out to be 3.84e+07 M⁻¹ s⁻¹.

Take B12: the equilibrium dissociation constant (Kd) worked out at 322 pM, the off-rate constant (koff) stood at 0.028 s⁻¹ and the kon came out at 8.71e+07 M⁻¹ s⁻¹.

B13 had a dissociation constant (Kd) of 343 pM, a koff of 0.0176 s⁻¹ and an on-rate constant (kon) of 5.15e+07 M⁻¹ s⁻¹.

B14 came in with a dissociation constant Kd of 69.1 pM, a dissociation rate constant (koff) of 0.00294 s⁻¹ and a kon of 4.26e+07 M⁻¹ s⁻¹.

In the case of B15, the Kd was 194 pM, the koff is 0.0204 s⁻¹ and the kon was 1.05e+08 M⁻¹ s⁻¹.

The target is the same in the next assay. As to the kind of experiment: Biacore, CTGF immobilised, antibody 150 µg/ml then 50 nM TGF-β1 (competitor TGF-β1). As to the method:
First, the antigen human CTGF was immobilized onto a CMS biosensor chip (Cat. # BR-1005-30, GE) by amino coupling, with an immobilization level of 1500 RU, and then a high concentration of CTGF antibody (150 μg/ml) was allowed to flow through the surface of the chip for 150 s; 50 nM TGF-β1 protein was injected for 120 s, and the reaction signals were detected in real time with the Biacore T200 instrument to generate a binding and dissociation curve. After the dissociation was completed in each of the experimental cycles, the biosensor chip was washed and regenerated with regeneration buffer.
The resulting experimental data were statistically analyzed with GE Biacore T200 Evaluation version 3.0 software.
With B1, the “Function-blocking percentage (%)” value is 52.3%.

In the case of B2, the “Function-blocking percentage (%)” value came out at 53.3%.

For B3, the “Function-blocking percentage (%)” value was 54.6%.

In the case of B4, the “Function-blocking percentage (%)” value was 52.3%.

Turning to B5, the “Function-blocking percentage (%)” value was determined as 50.8%.

Turning to B6, the “Function-blocking percentage (%)” value was determined as 55.2%.

On to B7, for which the “Function-blocking percentage (%)” value turned out to be 55%.

As to B8, the “Function-blocking percentage (%)” value was found to be 51.6%.

Take B9: the “Function-blocking percentage (%)” value stood at 52.8%.

On to B10, for which the “Function-blocking percentage (%)” value stood at 41.3%.
